Laboratory results published in PMC8636641.

Test system: dTao (Drosophila melanogaster)
Assay: fluorescence quenching (initial fluorescence, MST instrument)
Settings: inosine homopolymer strand; Pull-down: TAP buffer 50 mM Tris pH 7.5, 100 mM NaCl, 5% glycerol, 0.2% NP-40, 1.5 mM MgCl2, 60 min; quenching assay buffer not stated (dTao storage 20 mM Tris …)

## FITC-poly(I:C)
  Kd: 0.042 µM
